# Source: the nanobody polyreactivity screen of Harvey et al. (2022)
# Experiment: yeast display, Sf9 membrane polyspecificity reagent, FACS + sequencing; frameworks hold sequencing errors
# How it was run: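 Galactose-induced (36–48 hours) yeast carrying a synthetic nanobody display library were exposed to 10% biotinylated, detergent-solubilized Sf9 membrane reagent at 4 °C for 1 hour. FACS followed streptavidin microbead enrichment, using low and high (top ~1%) gates for expression (anti-HA) and reagent binding (streptavidin). Colony PCR, MiSeq 2 × 250 sequencing and CDR-length filtering followed. Labels for polyreactivity reflect the gate of origin.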
row,Sequence,polyreactivity (PSR sort gate)
1,QVQLVESGGGLVQAGGSLRLTCAASGFTFSGYAMGWYRQAPGKERELVAAISSSGASTYYADSVKGRFRISRDNAKYTVYLQMNSLNPEDTAVYYCNTLYYFPYLWPYDYWGQGTQVTVSS,high polyreactivity
2,QVQLVESGGGLVQAGGSLRLTCAASGFTLDVNAMGWYRQAPGKERELVATISWGGASTYYADSVKGRFTISRDNAKNTVYLQMNSLKPEDTAVYYCAAQYYYPDDKGGYDYWGQGTQVTVSS,low polyreactivity
3,QVQLVESGGGLVQAGGSLRLTCAASGGTFVYNAMGWYRKAPGKERELVAAISRGGTRTYYADSVKGRFTISRDNAKNTVYLQMNSLKPEDTAVYYCNAEVNTNYRIADYDYWGQGTQVTVSS,high polyreactivity
4,QVQLVESGGGLVQAGGSLRLTCAASGGTLRYYGMGWYRQAPGKEWEFVAAISWSGDSTYYADSVKGRFTISRDNAKTTVYLQMNSLKPEDTAVYFCAATYYLTYYYGQANHGYDYWGQGTQVTVSS,low polyreactivity
5,QVQLVESGGGLVQAGGSLRLTCAASGINCVWYAMGWYRQAPGKERELVAAIRSGGITNYADSVKGRFTISRDNAQNTVYLQMNSLKPEDTAVYYCAAPYRTDTGDDYWGQGTQVTLSS,low polyreactivity
6,QVQLVESGGGLVQAGGSLRLTCAASGITFRAYVMGWYRQEPGKERELVAAINRRGGSTYYADSVKGRFTISRDNAKNTVYLQMNSLKPEDTAVYYCAAGLYSTGYTYDYWGQGTQVTVSS,high polyreactivity
7,QVQLVESGGGLVQAGGSLRLTCAASGLIFYRYAMGWYRQAPGKERELVATMSRSGGTYADSVKGRFTISRDNAKNTVYLQMNSLKPEDTAVYYCNARTLYAYITRDYWGQGTQVTVSS,high polyreactivity
8,QVQLVESGGGLVQAGGSLRLTCAASGLTFDSNVMGWYRQAPGKERELVAAITASGGRTYYADSVKGRFTISRDNAKNTVYLQMNSLKPEDTAVYYCAADSRSAYDYWGQGSQVTVSS,high polyreactivity
9,QVQLVESGGGLVQAGGSLRLTCAASGLTFGLYAMGWYRQAPGKERELVAAITRGDSTNYADSVKGRFTISRDNAKNTVYLQMNSLKPEDTAVYYFNAVRTYWWGYNQQYNYWGQGTQVTVSS,high polyreactivity
10,QVQLVESGGGLVQAGGSLRLTCAASGLTFYFYTMGWYRQAPGKERELVAAIRSAGRTNYADSVKGRFTISRDNAKNTVYLQMNSLKPEDTAVYYCAAISPGYYRIVWYDYWGQGTQVTVSS,high polyreactivity
11,QVQLVESGGGLVQAGGSLRLTCAASGNTFTTNVMGWYRQAPGKERELVARISWSGTSTSYADSVKGRFTISRDNAKNTVYLQMNSLKPEDTAVYYCAVGGIVHIRSRAQQEYYYWGHGTQVTVSS,high polyreactivity
12,QVQLVESGGGLVQAGGSLRLTCAASGRIFPVYAMGWYRQAPGKERELVAAISGSGGSTYYADSVKGRFTISRDNAKKSVYLQMNSLKPEDTAVYYCAAVTTPRFSIGYEYWGQGTQVTVSS,low polyreactivity
13,QVQLVESGGGLVQAGGSLRLTCAASGRIFRVNTMGWYRQAPGKERELVATINGRGGSTYYADSVKGRFTISRDNAKNTVYLQMNSLKPVDTSVYYCAARARTTRSATYDYWGQGTQGTVSS,high polyreactivity
14,QVQLVESGGGLVQAGGSLRLTCAASGRIFRYYAMGWYRQAPGKERELVATISRGGSTTYADSVKGRFTISRDNAKNTVYLQMNSLKPEDTAVYYCDARFGSTYDYWGQGTQVTVSS,low polyreactivity
15,QVQLVESGGGLVQAGGSLRLTCAASGRIFSYYAMGWYRPAPGKERELVAAISSSGGSTYYADSVKGRFTISRDNAKNTVYLQMNSLKPEDTAVYDCRVYTRGEYYSWGQGTQVTVSS,high polyreactivity
16,QVQLVESGGGLVQAGGSLRLTCAASGRIFTTNAMGWYRQAPGKERELVAAITSGASTYADSVKGRVTISRDNAKNTGYLQMNSLKPEDTAVYAESTYNWYYYYWGQGTQVTVSS,low polyreactivity
17,QVQLVESGGGLVQAGGSLRLTCAASGRIFVPYVMGWFRQAPGKERELVAAISSSGGSTYYADSVKGRFTISRDNAKNTVYLQMNSLKPEDTAVYYCAKPYYFHEEDHWGQGTQVTVSS,low polyreactivity
18,QVQLVESGGGLVQAGGSLRLTCAASGRILGRNAMGWYRQAPGKEREFVAGISYSGTSTYYADSVKGRFTISRDNAKNTVYLQMNSLKPEDTAVYYCNVKNQVYRRYYYWGQGTQVTVSS,high polyreactivity
19,QVQLVESGGGLVQAGGSLRLTCAASGRTFGVYAMGWYRQAPGKERELVADITSGGGTYYADSVKGRFTILRDNAKNTVYLQMNSLKPEDTAVYYCAARKWYYAYEYWGQGTQVTVSS,high polyreactivity
20,QVQLVESGGGLVQAGGSLRLTCAASGRTFRLYVMGWYRQAPGKERELVASISYGGGRTYYADSVKGRFTISRDNAKNTVYLQMNSLKPEDTAVYYCAARYYTYRLDMDYWGQGTQVTVSS,high polyreactivity
21,QVQLVESGGGLVQAGGSLRLTCAASGRTFRTYAMGWYRQAPGKERELVAAITSGGNTYYADSVKGRFTISRDNAKNTVYLQMNSLKPEDTAVYYCAAVQYFKVSYWGQGTQVTVSS,high polyreactivity
22,QVQLVESGGGLVQAGGSLRLTCAASGRTFYVNAMGWYRQAHGKERELVATISRGGSTHYADSVKGRFTISRDNAKYTVYLQLNSLKPEDTAVYYCAAPGRTSVYRYYYWGQGTQVTVSS,high polyreactivity

row,Sequence,polyreactivity (PSR sort gate)
1,QVQLVESGGGLVQAGGSLRLTCAASGRTFYYYAMGWYRQAPGKERELVAAISRSGGSTYYADSVKGRFTISRDNSKNTVYLQMNSLKPEDTAVYYCAKVAITSSGYWRYDYWGQGTQVTVSS,high polyreactivity
2,QVQLVESGGGLVQAGGSLRLTCAASGRTLAKNAMGWYRQAPGKERELVAAISRRGGSTYYADSVKGRFTISRDNAKNTVYLQMNSLKPEDTAVYYCARASRQGYYQLSYDEFDYWGQGTQVTVSS,high polyreactivity
3,QVQLVESGGGLVQAGGSLRLTCAASGSIFFYYTMGWYRQAPGKERELVAAISVGGSTYYADSVKGRFTISRDNAKNTVYLQMNSLKPEDTAVYYCNAVPAKGYVTVVRYYYWGQGTQVTVSS,low polyreactivity
4,QVQLVESGGGLVQAGGSLRLTCAASGSIFPRYAMGWYREAPGKERELVAAISFRGASTYYADSVKGRFTISRDTEKNTVYLQMNSLKPEDTAVYYWNAVSRSLNYDYWGQGTQVTVSS,high polyreactivity
5,QVQLVESGGGLVQAGGSLRLTCAASGSIFRGYDMRWYRQAPGKERELVAASTWSGSTYYADSVKGRFTISRDNGKNTVYLQMNSLKPEDTAVYYCAAGSRYAYAYTMDYWGQGTQVTVSS,high polyreactivity
6,QVQLVESGGGLVQAGGSLRLTCAASGSIFRTNTMGWYRQAPGKVRELVAAITAIGDSTYYADSVKGRFTISRDNANNTVYLQMNSLKPEDTAVYYCAAEKVSWGYHFYSSYDYWGQGTQVTVSS,low polyreactivity
7,QVQLVESGGGLVQAGGSLRLTCAASGSIFTAYAMRLYRQAPGKERELVAAIDDSGDSTYYADSVKGRFTISRDNAKITVYLQMNSLKPEDTAVYYCKAEYRVNKEYDYWGQGTQVTVSS,low polyreactivity
8,QVQLVESGGGLVQAGGSLRLTCAASGSIFTAYTMGWYRQAPGKERDLVAAITERGGSTYYADSVKGRFTISRDNAKNTVYLQMNRMKPEDSAVYYCAASTLKDIYLWFRVDYWGQGTHVTVSS,low polyreactivity
9,QVQLVESGGGLVQAGGSLRLTCAASGSIFYFNTMGWYRQAPGKERELVAVISRRGGSTYYADSVKGRFTISRDNAKNTVYLQMNSLKPEDTAVYYCNAEVFDLWRSFLSPYEYWGQGTQVTVSS,low polyreactivity
10,QVQLVESGGGLVQAGGSLRLTCAASGSIFYYYAMGWYRQATGKERELVAAINSGVSTYYADSVKGRFTISRDNANNTVYLQMNSLKPDDTAVYYCAAPGHNLFGSWFSWTPDTYDYWGQGTQVTVSS,low polyreactivity
11,QVQLVESGGGLVQAGGSLRLTCAASGSILDYYVMGWYRQAPAKEREMVAAIRGGGSTYYADSVKGRFTISRDNAKNTVYLQMNSLKPEDTAVYYCAKDSQTARDFDYWGQGSQVTVSS,low polyreactivity
12,QVQLVESGGGLVQAGGSLRLTCAASGSIYKYKAMGWYRQAPGKERELVAAIRWSGVGTRYADSVKGRFTISRDNAKNSLYLQMNSLKREDTAVYYCAADVSKYHDGHEYDYWGQGTQVTVSS,low polyreactivity
13,QVQLVESGGGLVQAGGSLRLTCAASGSTFDYNTMGWYRPAPGKETELVAAISESGGSTYYADSVKGRFTISRDNAKNTVYLQMNSLTPEDTAVYYCATDDFGGYFGEYDYWGQGTQVTVSS,low polyreactivity
14,QVQLVESGGGLVQAGGSLRLTCAASGSTFGWYAMGWYRQAPGKGRGVVAAITGDSASTYYADSVKGRFTISRDNAKNTVYLQTNSLKPEDTAVYYCAATKFSAFGSPPLIGYGYWGQGTQVTVSS,low polyreactivity
15,QVQLVESGGGLVQAGGSLRLTCAASGSTFIFKKYVMGWYRQAPGSERELVAVISRRGDSTYYADSVKRPFTISRDNAKNTVYLQMNSLKPEDTAVYYCGAGYSTAGLARYDYWGQGTQVTVSS,high polyreactivity
16,QVQLVESGGGLVQAGGSLRLTCAASGSTFKYYAMGWYRQAPGKERELVAAIDWNGGRTYYADSVKGRFTISRDNAKNTVYLQMNSLKPEDTAVYYCAKLGRAAQGNYYWGQGTQVTVSS,high polyreactivity
17,QVQLVESGGGLVQAGGSLRLTCAASGSTFSANAMGWYRPGPGKERELVAGISRSGGRTYYADSVKGRFTISRDNAKNTVYLQMNSLKPEDTAVYFCNDRRRGAGGYDYWGQGTQVTVSS,high polyreactivity
18,QVQLVESGGGLVQAGGSLRLTCAASGSTFSRYVIGWYRQEPGKERELVAAISRSGSTYYADSVKGRFTISRDNAKNTVYLQMNSLKPEDTAVYYCAASGSKSAGYGYWGQGTQVTVSS,high polyreactivity
19,QVQLVESGGGLVQAGGSLRLTCAASGSTFVLYARGWYRQAPGKERELVAAITRRGGDTYYADSVKGRFTISRDNAKNTVYLQMNSLKPEDTAVYFCATDYTTYGRYDYWGHGTQVTVSS,low polyreactivity
20,QVQLVESGGGLVQAGGSLRLTCAASGSTLYVYPMGWYRPAPGKERELVASINSGGSTNYADSVKGRFSISRDNAKNTVYLQMNSLKRVDTAVYYCNAEYYGWFHHYDYWGQGTQVTVSS,high polyreactivity
21,QVQLVESGGGLVQAGGSLRLTCAASGYIFLQYAMGWYRPAPGKERELVAAITYNGGITYYADSVKGRFTISRDNAKNTVYLQRNSLKPEDTAVYYCAADKNQDVSYVGFDYWGQGTQVTVSS,low polyreactivity
